We go through 45 variants from the Human Domainome abundance scans (Beltran et al. 2025).

B1: LIM and senescent cell antigen-like-containing domain protein 2, residues 13 to 71; numbered along this chain, Q7Z4I7 (parent)
chain: AVCQRCQARFSPAERIVNSNGELYHEHCFVCAQCFRPFPEGLFYEFEGRKYCEHDFQML

± gives the uncertainty stated by the source.

The series covers variants of B1. The series can be described thus: abundance fitness (aPCA) (normalised: wild type 0, dead -1); higher = more abundant; growth selection in yeast, the domain comes from the species named. The note with it: Homo sapiens.
For AVCQRCQARFSLAERIVNSNGELYHEHCFVCAQCFRPFPEGLFYEFEGRKYCEHDFQML [P12L], the abundance fitness was -0.059 ± 0.055.
As for AVCQRCQARFSPAERIVNSNGELYHEHCFVCAQCFRPFPEGLFYEFEGRKYCEFDFQML [H54F], the abundance fitness was -0.01 ± 0.13.
In the case of AICQRCQARFSPAERIVNSNGELYHEHCFVCAQCFRPFPEGLFYEFEGRKYCEHDFQML [V2I], the abundance fitness came out at 0.019 ± 0.1.
For the variant APCQRCQARFSPAERIVNSNGELYHEHCFVCAQCFRPFPEGLFYEFEGRKYCEHDFQML [V2P], the abundance fitness is -0.274 ± 0.093.
AVCQRCQARFSPALRIVNSNGELYHEHCFVCAQCFRPFPEGLFYEFEGRKYCEHDFQML [E14L]: the abundance fitness was -0.512 ± 0.07.
For the variant AVCQRCQARFSPAERIVNSNGELYHEHCFVCAQCFRPFPEGPFYEFEGRKYCEHDFQML [L42P], the abundance fitness is -0.357 ± 0.11.
Then AVCQRCQARFSPAERIVNFNGELYHEHCFVCAQCFRPFPEGLFYEFEGRKYCEHDFQML [S19F], with -0.22 ± 0.13; and AVCQRCQARFSPAERIVNCNGELYHEHCFVCAQCFRPFPEGLFYEFEGRKYCEHDFQML [S19C], with -0.117 ± 0.096; and AVCQRCQARFSPAERIVNSNGELYHEHCFVCAQCFRPFPEGLFYEFEGRKYCEHDFQVL [M58V], with 0.007 ± 0.094.
In the case of AVCQRCQARFSPAERIVNSNGELYHEHCFVCAQCFRPFPEGLFYEFEGRKYCEHDFQLL [M58L], the abundance fitness is 0.04 ± 0.059.
With AVCQRCQARFSPAERIVNSNDELYHEHCFVCAQCFRPFPEGLFYEFEGRKYCEHDFQML [G21D], the abundance fitness is -0.324 ± 0.12.
Then AVCQRCQARFSPAERIVNSNAELYHEHCFVCAQCFRPFPEGLFYEFEGRKYCEHDFQML [G21A], with -0.045 ± 0.066; and AVCQHCQARFSPAERIVNSNGELYHEHCFVCAQCFRPFPEGLFYEFEGRKYCEHDFQML [R5H], with 0.069 ± 0.15; and AVCQDCQARFSPAERIVNSNGELYHEHCFVCAQCFRPFPEGLFYEFEGRKYCEHDFQML [R5D], with 0.104 ± 0.12.
Consider AVCQRCQARFSPAERIVNSNGELYHEHCFRCAQCFRPFPEGLFYEFEGRKYCEHDFQML [V30R], for which the abundance fitness is -0.093 ± 0.059.
On to AVCQRCQARFSPAERIVNSNGELYHEHCFNCAQCFRPFPEGLFYEFEGRKYCEHDFQML [V30N], for which the abundance fitness is -0.257 ± 0.14.
For the variant AVCQRCQARFSPAERIVNSNGELYYEHCFVCAQCFRPFPEGLFYEFEGRKYCEHDFQML [H25Y], the abundance fitness was -0.786 ± 0.26.
As for AVCQRCQARFSPAERIVNSNGELYDEHCFVCAQCFRPFPEGLFYEFEGRKYCEHDFQML [H25D], the abundance fitness was -0.96 ± 0.27.
As for AVCQRYQARFSPAERIVNSNGELYHEHCFVCAQCFRPFPEGLFYEFEGRKYCEHDFQML [C6Y], the abundance fitness was -0.732 ± 0.16.
AVCQRCQARFSPAERIVNSNGELYHEHCFVCAQCFRPFPYGLFYEFEGRKYCEHDFQML [E40Y]: the abundance fitness was -0.212 ± 0.079.
With AVCQRCQARFSPAERIVNSNGELYHEHCFVCSQCFRPFPEGLFYEFEGRKYCEHDFQML [A32S], the abundance fitness was -0.172 ± 0.058.
AVCQRCQARFSPAERIVNSNGELYHEHCFVCQQCFRPFPEGLFYEFEGRKYCEHDFQML [A32Q]: the abundance fitness amounted to 0.083 ± 0.064.
AVCQRCQARFVPAERIVNSNGELYHEHCFVCAQCFRPFPEGLFYEFEGRKYCEHDFQML [S11V]: the abundance fitness is -0.227 ± 0.055.
As to AVCQRCQARFTPAERIVNSNGELYHEHCFVCAQCFRPFPEGLFYEFEGRKYCEHDFQML [S11T], the abundance fitness is -0.087 ± 0.067.
For AVCQRCQARFSPTERIVNSNGELYHEHCFVCAQCFRPFPEGLFYEFEGRKYCEHDFQML [A13T], the abundance fitness stood at 0.035 ± 0.071.
As for AVCQRCQARFSPQERIVNSNGELYHEHCFVCAQCFRPFPEGLFYEFEGRKYCEHDFQML [A13Q], the abundance fitness was -0.245 ± 0.11.
The same measure for AVCQRCQARFSPAERIVNSNGVLYHEHCFVCAQCFRPFPEGLFYEFEGRKYCEHDFQML [E22V]: -0.098 ± 0.091; for AVCQRCQARFSPAERIVNSNGELYHEHCFVCAQCFRPFPEGLFYEFEGRKKCEHDFQML [Y51K]: -0.276 ± 0.14.
Regarding AVCQRCQARFSPAERIVNSNGELYHEHCFVCAQCFRPFVEGLFYEFEGRKYCEHDFQML [P39V], the abundance fitness was -0.017 ± 0.056.
AVCWRCQARFSPAERIVNSNGELYHEHCFVCAQCFRPFPEGLFYEFEGRKYCEHDFQML [Q4W]: the abundance fitness is -0.528 ± 0.1.
In the case of AVCYRCQARFSPAERIVNSNGELYHEHCFVCAQCFRPFPEGLFYEFEGRKYCEHDFQML [Q4Y], the abundance fitness turned out to be 0.086 ± 0.11.
Turning to AVCQRCQASFSPAERIVNSNGELYHEHCFVCAQCFRPFPEGLFYEFEGRKYCEHDFQML [R9S], the abundance fitness was 0.212 ± 0.066.
Turning to AVCQRCQARFSPAERIVNSNGEIYHEHCFVCAQCFRPFPEGLFYEFEGRKYCEHDFQML [L23I], the abundance fitness worked out at 0.078 ± 0.12.
Turning to AVCQRCQARFSPAERIVNSNGESYHEHCFVCAQCFRPFPEGLFYEFEGRKYCEHDFQML [L23S], the abundance fitness is -0.003 ± 0.045.
Regarding AVCQRCQARFSPAEKIVNSNGELYHEHCFVCAQCFRPFPEGLFYEFEGRKYCEHDFQML [R15K], the abundance fitness was 0.147 ± 0.075.
On to AVCQRCQARFSPAERWVNSNGELYHEHCFVCAQCFRPFPEGLFYEFEGRKYCEHDFQML [I16W], for which the abundance fitness was -0.146 ± 0.063.
On to AVCQRCQARFSPAERIVNSNGELYHEHCFVCAQCFRPFPEGLFYEFEGRKYCEHDWQML [F56W], for which the abundance fitness is -0.364 ± 0.26.
Then AVCQRCQARFSPAERIVNSNGELYHEHDFVCAQCFRPFPEGLFYEFEGRKYCEHDFQML [C28D], with -0.322 ± 0.2.
For AVCQRCQARFSPAERIVNSNGELYHEHKFVCAQCFRPFPEGLFYEFEGRKYCEHDFQML [C28K], the abundance fitness is -0.538 ± 0.14.
Then AVCQRCQARFSPAERIVNSNGELYHEHCFVCAQCFRPFPEGLFYEFEGRKYCDHDFQML [E53D], with 0.169 ± 0.13; and AVCQRCQARFSPAERIINSNGELYHEHCFVCAQCFRPFPEGLFYEFEGRKYCEHDFQML [V17I], with 0.009 ± 0.12; and AVCQRCQARFSPAERIVNSNGELYHEHCFVCAQCFRPFPEGLFYEFEGRDYCEHDFQML [K50D], with -0.473 ± 0.23.
Consider AVCQRCQARFSPAERIVNSNGELYHEHCFVCAQCFRPFPEGLFYEFEGRYYCEHDFQML [K50Y], for which the abundance fitness is -0.104 ± 0.11.
AVCQRCQARFSPAERIVNSNGELYHEHCFVCAQCFRPFPEGLFYEFEGRHYCEHDFQML [K50H]: the abundance fitness was -0.225 ± 0.16.
For the variant AVCQRCQARFSPAERIVVSNGELYHEHCFVCAQCFRPFPEGLFYEFEGRKYCEHDFQML [N18V], the abundance fitness is -0.316 ± 0.08.
